As a reminder, the IC50 is the concentration that gives 50% inhibition. Read a low IC50 as greater potency in that assay.

Test in all cases: competitive phage ELISA
For orientation: In an ELISA, binding on a coated surface is turned into a signal by an enzyme label.

Assay [1] deals with T1, IGF-I Q40A (G1S-A70V background) displayed on phage (human; bacteriophage M13).
T1 construct: monovalent M13 phage display
T1 chain: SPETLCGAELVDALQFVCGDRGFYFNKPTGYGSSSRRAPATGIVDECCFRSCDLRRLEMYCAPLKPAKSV
How it is done: (§1) Phage particles were harvested and resuspended in PBS buffer as described in Lowman, H. B., “Phage Display of Peptide Libraries on Protein Scaffolds,” in Cabilly, S. (ed.), Combinatorial Peptide Library Protocols (Humana Press Inc.: Totowa, N.J., 1998), pp. 249-264. Then phage concentrations were normalized to yield a maximal ELISA signal of 0.2-0.4 for each mutant (Lowman, in Cabilly, S. (ed.), supra). Threefold serial dilutions of soluble competitor were prepared on non-absorbent microtiter plates (Nunc, F, 96 wells) with binding buffer (0.5% TWEEN™ 20/PBS) containing phage at the previously-determined concentrations. […] After blocking, the plates containing immobilized target were washed with 0.05% TWEEN™/PBS buffer and subsequently incubated with 80 μl/well of the premixed phage-competitor solutions for 1 hour at room temperature. After washing, bound phage was detected with 80 μl/well of a solution containing a primary rabbit anti-phage polyclonal antibody and a secondary goat anti-rabbit monoclonal antibody-horseradish peroxidase conjugate in 0.5% TWEEN 20™/PBS. o-Phenylenediamine (Sigma) and tetramethylbenzidine (Kirkegaard and Perry) were used as chromogenic substrates, resulting in product detection at 492 and 450 nm, respectively. IC₅₀ values were determined by fitting the binding data to a generic saturation curve (Lowman, in Cabilly, S. (ed.), supra). […] Numbers in Table I represent mean +standard deviation of individually assessed IC₅₀ values.
(§2) At least two different clones of every mutant were tested.

The target of assay [2] is T2, IGF-I K65A (G1S-A70V background) displayed on phage (human; bacteriophage M13).
T2 construct: monovalent M13 phage display; not shown: M13 gene III protein fragment (residues 249-406), the phage display carrier, and its junction to IGF-I
T2 chain: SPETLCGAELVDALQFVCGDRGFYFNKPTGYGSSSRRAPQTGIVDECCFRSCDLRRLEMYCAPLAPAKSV
The procedure:
as §1, §2

Assay [3] has as its target T3, IGF-I P2A (G1S-A70V background) displayed on phage (human; bacteriophage M13).
T3 construct: range 249-406; monovalent M13 phage display
The procedure:
as §1, §2

Assay [4] concerns the target T4, IGF-I S51A (G1S-A70V background) displayed on phage (human; bacteriophage M13).
T4 construct: monovalent M13 phage display
T4 chain: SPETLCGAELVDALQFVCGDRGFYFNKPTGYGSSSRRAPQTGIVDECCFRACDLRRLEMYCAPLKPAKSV
How it is done: as §1, §2

Assay [5] concerns the target T5, IGF-I F16A (G1S-A70V background) displayed on phage (human; bacteriophage M13).
T5 construct: monovalent M13 phage display
T5 chain: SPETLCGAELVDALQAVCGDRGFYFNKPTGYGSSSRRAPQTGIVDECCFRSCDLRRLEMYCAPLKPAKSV
The procedure: as §1, §2

Assay [6] deals with T6, IGF-I R56A (G1S-A70V background) displayed on phage (human; bacteriophage M13).
T6 construct: monovalent M13 phage display
T6 chain: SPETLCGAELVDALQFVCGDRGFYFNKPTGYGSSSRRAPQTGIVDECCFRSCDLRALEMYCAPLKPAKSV
The procedure: as §1, §2

Assay [7] deals with T7, IGF-I N26A (G1S-A70V background) displayed on phage (human; bacteriophage M13, not fully specified; Displayed monovalently on M13 phage as a C-terminal fusion to the gene III fragment, which is left out of the letters.).
T7 construct: monovalent M13 phage display; not shown: Display carrier: M13 gene III fragment (residues 249-406) and its junction
T7 chain: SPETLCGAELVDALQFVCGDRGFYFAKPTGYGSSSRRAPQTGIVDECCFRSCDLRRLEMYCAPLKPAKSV
The procedure:
as §1, §2

Assay [8] deals with T8, IGF-I L64A (G1S-A70V background) displayed on phage (human; bacteriophage M13).
T8 construct: monovalent M13 phage display; not shown: M13 gene III protein fragment (residues 249-406), the phage display carrier, and its junction to IGF-I
T8 chain: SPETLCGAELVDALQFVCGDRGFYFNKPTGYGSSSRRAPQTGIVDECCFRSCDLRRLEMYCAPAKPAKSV
The procedure:
as §1, §2

Assay [9] addresses T9, IGF-I Y24A (G1S-A70V background) displayed on phage (human; bacteriophage M13, not fully specified; Displayed monovalently on M13 phage as a C-terminal fusion to the gene III fragment, which is left out of the letters.).
T9 construct: monovalent M13 phage display; not shown: Display carrier: M13 gene III fragment (residues 249-406) and its junction
T9 chain: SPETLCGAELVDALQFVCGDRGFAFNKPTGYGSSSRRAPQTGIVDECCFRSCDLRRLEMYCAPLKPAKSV
The procedure:
as §1, §2

Assay [10] deals with T10, IGF-I S1A (G1S-A70V background) displayed on phage (human; bacteriophage M13).
T10 construct: range 249-406; monovalent M13 phage display
How it is done:
as §1, §2

Assay [11] deals with T11, IGF-I F23A (G1S-A70V background) displayed on phage (human; bacteriophage M13, not fully specified; Displayed monovalently on M13 phage as a C-terminal fusion to the gene III fragment, which is left out of the letters.).
T11 construct: monovalent M13 phage display; not shown: Display carrier: M13 gene III fragment (residues 249-406) and its junction
T11 chain: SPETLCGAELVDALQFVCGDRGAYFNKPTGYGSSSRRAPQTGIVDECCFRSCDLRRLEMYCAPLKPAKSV
The procedure:
as §1, §2

The target of assay [12] is T12, IGF-I K68A (G1S-A70V background) displayed on phage (human; bacteriophage M13, UniProt P69168 267-424).
T12 chain: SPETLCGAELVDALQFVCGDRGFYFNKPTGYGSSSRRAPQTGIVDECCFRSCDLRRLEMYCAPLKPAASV
The procedure:
as §1, §2

Assay [13] deals with T13, IGF-I D53A (G1S-A70V background) displayed on phage (human; bacteriophage M13).
T13 construct: monovalent M13 phage display
T13 chain: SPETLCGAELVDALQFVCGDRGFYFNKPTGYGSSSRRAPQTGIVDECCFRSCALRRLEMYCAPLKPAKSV
The procedure: as §1, §2

The target in assay [14] is T14, IGF-I L14A (G1S-A70V background) displayed on phage (human; bacteriophage M13).
T14 construct: monovalent M13 phage display
T14 chain: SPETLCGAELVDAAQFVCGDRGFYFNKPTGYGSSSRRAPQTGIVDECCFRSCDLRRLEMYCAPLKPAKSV
How it is done:
as §1, §2

The target of assay [15] is T15, IGF-I G1S-A70V displayed on phage (human; bacteriophage M13).
T15 construct: monovalent M13 phage display; template of the alanine scan; also called G1S-A70V IGF-I; wild-type-like IGF-I variant; not shown: M13 gene III fragment (residues 249-406, display partner) and the junction to it
How it is done: as §1, §2

B1: human IGFBP-1 (other, UniProt P08833 26-259, looked up)
chain: APWQCAPCSAEKLALCPPVSASCSEVTRSAGCGCCPMCALPLGAACGVATARCARGLSCRALPGEQQPLHALTRGQGACVQESDASAPHAAEAGSPESPESTEITEEELLDNFHLMAPSEEDHSILWDAISTYDGSKALHVTNIKKWKEPCRIELYRVVESLAKAQETSGEEISKFYLPNCNKNGFYHSRQCETSMDGEAGLCWCVYPWNGKRIPGSPEIRGDPNCQIYFNVQN
notes: secreted recombinant protein purified from conditioned medium
B1: the IC50 in [1] was 10.2 nM; in [2], 12.4 nM; in assay [3], 11 nM; in assay [4] it was 13.4 nM; in assay [5], 57.8 nM; in assay [6], 13.1 nM. In addition, the IC50 in assay [7] was 9.1 nM; in assay [8] it was 12.1 nM; in [9], 13.3 nM; in [10], 5.2 nM; in assay [11], 10.9 nM; in assay [12] it was 10.5 nM. The IC50 came out at 15.3 nM in assay [13], 36.7 nM in assay [14] and 8.2 nM in assay [15].

The values are drawn from patent US20020160955A1 (published 2002).
